{"source": "the DeepSol protein solubility set"}
{"assay": "soluble on expression in E. coli; label from the status in PepcDB or PDB records"}
{"sequence": "MSLAQAPHPERIYLSGTGIDNTKTWDFFCSAGQNSGKWKKIEVPCNWELQGFGEYTYGRWYTIKGQHPSDETGTYRYKFDAPKSWAGQRVKIFFDGVMTDAEIMINGKPAGEMHQGGFYRFNYDITELLNLGKKNQLEVKVAKESANRSINAAERKADWWLFGGIYRPVWLEVLPQIHMEHFVLNADHQGKLQAAVDMAGDAKGHEIIVSVRSLKDGKTVYTSNGQTTITHSISNSDKEQMISGEWASIIPWSTENPNLYVAKLELKNPEGKIVQTRETRIGFRTVEFFPQDGVYLNGTKLVVKGINRHSFSVDGGRTTSAALSRMDALLIKEMNMNAVRSHYPPDEHFLDMCDSLGLVYMDELAGWQNGYDSRVGAKLVKEMIERDVNHPCIILWSNGNEGGWNTQTDPLFAQYDRLQKRHMVHPWADFNDLDTHHYPTYLTGVARFTNGYKVFMPTEFMHAMYDQGGGAGLRDFWDRWCTNPLFAGGFIWVYCDEAPKRSDKGGILDSDKSNAPDGVVGPRREKEGSYYAIRAQWSPIQLKPLLITNHFDGRFLLTNEYTFTNLKDCRMTYKVLSCGTPLQGNAEAGKVIAEGKVQLPSINPGETGTARFELPDSFRKGDVLELEAFDREGKSICNWTYPIHLAKQYFERNLAQTTLTPAPQKAEARQTSDAIELKSSKVSITFDAATGMIRHIKSGETEVPFKDGPVAIGMKMRYEPSLSYTRHSSDGAIYCAKYKGAADSIVWRLTNEGLLYMDAILLNRGSGGGGFDDAFMDAQVFNLGLSFSYPEQNCSGMKWMGRGPYRVWKNRIPGTNYGIWHKDYNNTITGESFENLIYPEFKGYHANLYWATLEGEKTSFTVYSRNDGTFFRVFTPEEPAGRIKDTMPAFPEGDLSFLLDIPAICSFKPIEQQGPNSQPGNIRIKSGDEGLHLNLMFDFREGHHHHHH", "soluble on expression in E. coli": "soluble"}
{"sequence": "MSLAQTPVMDVGTKSYISHQEQKMTATVEQIESWIVDVPTIRPHKLSMTTMGCQSLVIVRLTRSDGICGIGEATTIGGLSYGVESPEAISSAITHYLTPLLKGQPADNLNALTARMNGAIKGNTFAKSAIETALLDAQGKALGLPVSALLGGALQTALPVLWTLASGDTAKDIAEGEKLLAEGRHRAFKLKIGARELATDLRHTRAIVEALGDRASIRVDVNQAWDAATGAKGCRELAAMGVDLIEQPVSAHDNAALVRLSQQIETAILADEAVATAYDGYQLAQQGFTGAYALKIAKAGGPNSVLALARVAQAAGIGLYGGTMLEGTVGTVASLHAWSTLPLQWGTEMFGPLLLKDDIVSVPLTFADGQVALPQTPGLGVELDEDKLHFYTRQEGHHHHHH", "soluble on expression in E. coli": "soluble"}
{"sequence": "MSLARPNSKASIGTVFQDRAARYGDRVFLKFGDQQLTYRDANATANRYAAVLAARGVGPGDVVGIMLRNSPSTVLAMLATVKCGAIAGMLNYHQRGEVLAHSLGLLDAKVLIAESDLVSAVAECGASRGRVAGDVLTVEDVERFATTAPATNPASASAVQAKDTAFYIFTSGTTGFPKASVMTHHRWLRALAVFGGMGLRLKGSDTLYSCLPLYHNNALTVAVSSVINSGATLALGKSFSASRFWDEVIANRATAFVYIGEICRYLLNQPAKPTDRAHQVRVICGNGLRPEIWDEFTTRFGVARVCEFYAASEGNSAFINIFNVPRTAGVSPMPLAFVEYDLDTGDPLRDASGRVRRVPDGEPGLLLSRVNRLQPFDGYTDPVASEKKLVRNAFRDGDCWFNTGDVMSPQGMGHAAFVDRLGDTFRWKGENVATTQVEAALASDQTVEECTVYGVQIPRTGGRAGMAAITLRAGAEFDGQALARTVYGHLPGYALPLFVRVVGSLAHTTTFKSRKVELRNQEGHHHHHH", "soluble on expression in E. coli": "not soluble"}
{"sequence": "MSLASIDFRNKINWHRRYRSPQGVKTEHEILRIFESDRGRIINSPAIRRLQQKTQVFPLERNAAVRTRLTHSMEVQQVGRYIAKEILSRLKEQDRLEEYGLDALTGPFESIVEMACLMHDIGNPPFGHFGEAAINDWFRQRLHPEDAESQPLTHDRCVVSSLRLQEGEENLNDIRRKVRQDICHFEGNAQGIRLVHTLMRMNLTWAQVGGILKYTRPAWWRGPVPDSHRYLMKKPGYYLSEEKYIARLRKELQLAPYSRFPLTWIMEAADDISYCVADLEDAVEKRIFSVEQLYHHLYHAWCHHEKDSLFELVVGNAWEKSRANTLSRSTEDQFFMYLRVNTLNKLVPYAAQRFIDNLPQIFAGTFNQALLEDASGFSRLLELYKNVAVEHVFSHPDVEQLELQGYRVISGLLDIYQPLLSLSLNDFRELVEKERLKRFPIESRLFQKLSTRHRLAYVEVVSKLPTDSAEYPVLEYYYRCRLIQDYISGMTDLYAWDEYRRLMAVEQEGHHHHHH", "soluble on expression in E. coli": "soluble"}
{"sequence": "MSLASLRVLALACLPLFAVLHADAKTLLGKVKRATGMGVGEGPSVAKKPKYTATVPGFTPPSGDQRMNEFMAVDTSGEFMRHLYIEEGRTVCASATSRNRRPTSESPHSDDVVVVEGMLRGRPETRVHAMFDGFQGRHSAMWLAQNVMNYLNDLRDVNEEEITRQFERMDGDLRAANLPGGSSALIIFVRYEKKPTEARVVGRQIVPEGAKEFTSVAEALGGPLMPVVAMNFRRDPRAAKGIYTIHVASLGNSRCVLKSGRTAIHLSTPHTASSHKERHRVQAAGGVFTTVNGELLLGGVVPMTRAFGSFDFKKGGQGKLQQDLVSAVPDVTTFFAYPGDDEGHHHHHH", "soluble on expression in E. coli": "not soluble"}
{"sequence": "MSLATIVVKTTPDNEIAYWPTGKEHLFCIALGTKAQAGPLGEFVHQFRTDRPGMVQVWTQGSDSFTLYLTPGSKDTITVTKDTLIISGTNSAYNRCLKTVNDYQKYSDKLVYMQPHELRGITSLEQYHRLADARMRQALDAVNASGLNEEFLAEQRAHIDYIRRSIFIHIARQLSRKEKLPEDWQRELTEVINSSVNGDYLRSYRGIGFFVNDLVMMQFTNLENGDLKEIKEYASFLFDRYRKFFTGDNLQYMQAQLIYEDEFQGSKTPSIPQLYETYRAEFPNSPFLNVLEPGVKENLRFQNSRITDKDYHILTCDSTITSLEDAVKPFKGKVVYIDVWATWCGPCLKEFQYLPTLKEKAHNMDVVYLYISIDRPEERKKWEKTIAYHQLKGYHLLVNEKLGKSLYTELGNERQILSIPCFVIIDKTGKIVIRHAAAPSEPEKVIEQLSTYYNKEGHHHHHH", "soluble on expression in E. coli": "soluble"}
{"sequence": "MSLAYTIKKVEKETKISAHTLRFWAKKGLFPFVQKDENSVKYFSKSDIEWVKWIEWLRISGMPIEQVKHYIKLCSLGIKTAKERQEMLKQTKKKLQNQIKTLKESEKVLSKKIKIYEEMLANEVDGFNPESKDYQPCDKLHKFKGEGHHHHHH", "soluble on expression in E. coli": "not soluble"}
{"sequence": "MSLDAPYFSPRRLGHVNLIVRDTDASMRFYQDVVGFEEVYRVPAIGGGFLSNGNTHHDVGMVQSSGPSGKGRPPGLNHLAFELETEVALVEGYERSRQDGLAFERTLDHDIAHSAYCADPDGNSCELYADVVREWRTARTGEVTKPKPAWWPGKTPPNPHRNYHAEPQLRQVAHAAFHPLRTQHATLVVADLRESIAFYTRRIGLALQAQGDGYALLGGRCGRRDVALVQARGQLSPGYHHVGLEVADAGELLQAAQRWREQGGQVERLIEHPLRTAVYITDPDGLLLQFFVDHAADHAAWRHLDREQALWIVEGHHHHHH", "soluble on expression in E. coli": "not soluble"}
{"sequence": "MSLDDEPLLPDFEQLGYPRNLPTLVLGLRGMICEITHSKKNGWGIVKRPGVDKFFNILKNYYEIVIWSDESFPIPHEVLEKWNLPIIGILNKNHFSKINGKLFKNLSRLGRNLNRVILVDNESYSANIQYDNSIVLPIFKGDPYDNELNSIIDLLKAAAMQPGDIREYLKRFRCNDTNIGDEGHHHHHH", "soluble on expression in E. coli": "soluble"}
{"sequence": "MSLDDFCNIPKGKEVVFGFNVPQSGAYADEGMDELKAYQLAVKHLNGEGDGGMLKTMKPLALKGNGVLGKKVTFVSGDTQTKADQARATAKRMIEKDGAIMITGGSSSAEAVAVQSLCQDVGVIFMAGLTHSNDTTGKDKRAYGFRHFFNAYMSGVALGPVLAEAYGKDRAAYHLTADYTWGWTQEESMKDATEKQGWKTVKAVRTPLGAADFSQYITPVLNSGADVLILNHYGKDMINSLTQAVQFGLRDKMANGKKFEIVVPLFSELMAQGAGDAIKGIYGTANWDWKLEDAATSAFTKSFGAAYGTPPSQAAQTCYVQAILYADAVERAGTFNPSKVIAALEGFEFDGLGNGKTLYRAADHQCFKDVLVVQGKEKPKDKFDLLEVKKIVPASQVTYDPSIFGGELGSKDAKAEGHHHHHH", "soluble on expression in E. coli": "soluble"}
{"sequence": "MSLDETPTIHILWINAGLSCDGDSVALTAAMQPSIEEIVLGVLPGLPKIAVHWPLIDFECGPVGGSDTFIEWFFKGERGEIDPFVLVVEGSIPNESIKPEGYWCGFGDNPETGQPITTSEWIDRLAPKALAVVAIGTCATYGGIHAMAGNPTGAMGVPDYLGWDWKSQAGIPIVCVPGCPIQPDNFSETLTYLLYQAAGAAPMIPLDDKLRPTWLFGATEGHHHHHH", "soluble on expression in E. coli": "soluble"}
